Measured values: the supplement of paper PMC10567573

B1: MMP1 (parent)
chain: YTPDLPRADVDHAIEKAFQLWSNV

Variants of: B1
Assay: protein stability index of a GFP-peptide fusion (GPS, HEK-293T) (PSI 1-6); higher = more stable
Conditions: c terminus: a fixed tail appended
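Further: lentivirally expressed fusions sorted by FACS into six bins by GFP to DsRed ratio, PSI derived from sequencing read proportions per bin multiplied by bin number.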

Question: With YTPDLPAADVDHAIEKAFQLWSNV [R7A] as the variant, how does the protein stability index read?
Answer: 2.3

Question: For YTPDLPEADVDHAIEKAFQLWSNV [R7E], which protein stability index is on record?
Answer: 1.94

Question: For YTPDLPKADVDHAIEKAFQLWSNV [R7K], which protein stability index is on record?
Answer: 2.12

Question: With YTPDLPCADVDHAIEKAFQLWSNV [R7C] as the variant, how does the protein stability index read?
Answer: 2.01

Question: Which protein stability index does the source give for YTPDLPHADVDHAIEKAFQLWSNV [R7H] here?
Answer: 1.89

Question: With YTPDLPIADVDHAIEKAFQLWSNV [R7I] as the variant, how does the protein stability index read?
Answer: 1.5

Question: For YTPDLPLADVDHAIEKAFQLWSNV [R7L], which protein stability index is on record?
Answer: 1.42

Question: With YTPDLPDADVDHAIEKAFQLWSNV [R7D] as the variant, how does the protein stability index read?
Answer: 1.79

Question: With YTPDLPFADVDHAIEKAFQLWSNV [R7F] as the variant, how does the protein stability index read?
Answer: 2.09

Question: Which protein stability index does the source give for YTPDLPGADVDHAIEKAFQLWSNV [R7G] here?
Answer: 1.91

Question: Which protein stability index does the source give for YTPDLIRADVDHAIEKAFQLWSNV [P6I] here?
Answer: 2.09

Question: Which protein stability index does the source give for YTPDLRRADVDHAIEKAFQLWSNV [P6R] here?
Answer: 1.78

Question: With YTPDLKRADVDHAIEKAFQLWSNV [P6K] as the variant, how does the protein stability index read?
Answer: 2.12

Question: With YTPDLYRADVDHAIEKAFQLWSNV [P6Y] as the variant, how does the protein stability index read?
Answer: 1.47

Question: Which protein stability index does the source give for YTPDLDRADVDHAIEKAFQLWSNV [P6D] here?
Answer: 2.01

Question: With YTPDLHRADVDHAIEKAFQLWSNV [P6H] as the variant, how does the protein stability index read?
Answer: 1.55

Question: For YTPDLQRADVDHAIEKAFQLWSNV [P6Q], which protein stability index is on record?
Answer: 2.03

Question: For YTPDLFRADVDHAIEKAFQLWSNV [P6F], which protein stability index is on record?
Answer: 1.82

Question: For YTPDLERADVDHAIEKAFQLWSNV [P6E], which protein stability index is on record?
Answer: 1.83

Question: Which protein stability index does the source give for YTPDLGRADVDHAIEKAFQLWSNV [P6G] here?
Answer: 2.17

Question: For YTPDLWRADVDHAIEKAFQLWSNV [P6W], which protein stability index is on record?
Answer: 2.06

Question: For YTPDLARADVDHAIEKAFQLWSNV [P6A], which protein stability index is on record?
Answer: 1.56

Question: Which protein stability index does the source give for YTPDLMRADVDHAIEKAFQLWSNV [P6M] here?
Answer: 2.2

Question: With YTPDLVRADVDHAIEKAFQLWSNV [P6V] as the variant, how does the protein stability index read?
Answer: 2.12

Question: With YTPDLTRADVDHAIEKAFQLWSNV [P6T] as the variant, how does the protein stability index read?
Answer: 1.78

Question: Which protein stability index does the source give for YTPDLSRADVDHAIEKAFQLWSNV [P6S] here?
Answer: 2.55

Question: For YTPDLLRADVDHAIEKAFQLWSNV [P6L], which protein stability index is on record?
Answer: 1.32

Question: Which protein stability index does the source give for YTPDLCRADVDHAIEKAFQLWSNV [P6C] here?
Answer: 2.05

Question: Which protein stability index does the source give for YTPDLNRADVDHAIEKAFQLWSNV [P6N] here?
Answer: 1.8

Question: For YTTDLPRADVDHAIEKAFQLWSNV [P3T], which protein stability index is on record?
Answer: 1.84

Question: Which protein stability index does the source give for YTRDLPRADVDHAIEKAFQLWSNV [P3R] here?
Answer: 2.49

Question: Which protein stability index does the source give for YTLDLPRADVDHAIEKAFQLWSNV [P3L] here?
Answer: 1.62

Question: For YTQDLPRADVDHAIEKAFQLWSNV [P3Q], which protein stability index is on record?
Answer: 2.96

Question: With YTDDLPRADVDHAIEKAFQLWSNV [P3D] as the variant, how does the protein stability index read?
Answer: 3.37

Question: With YTSDLPRADVDHAIEKAFQLWSNV [P3S] as the variant, how does the protein stability index read?
Answer: 2.36

Question: With YTIDLPRADVDHAIEKAFQLWSNV [P3I] as the variant, how does the protein stability index read?
Answer: 1.92

Question: For YTEDLPRADVDHAIEKAFQLWSNV [P3E], which protein stability index is on record?
Answer: 2.66

Question: Which protein stability index does the source give for YTGDLPRADVDHAIEKAFQLWSNV [P3G] here?
Answer: 1.62

Question: For YTFDLPRADVDHAIEKAFQLWSNV [P3F], which protein stability index is on record?
Answer: 2.3

Question: Which protein stability index does the source give for YTADLPRADVDHAIEKAFQLWSNV [P3A] here?
Answer: 1.79

Question: Which protein stability index does the source give for YTYDLPRADVDHAIEKAFQLWSNV [P3Y] here?
Answer: 1.8

Question: With YTVDLPRADVDHAIEKAFQLWSNV [P3V] as the variant, how does the protein stability index read?
Answer: 2.13

Question: Which protein stability index does the source give for YTMDLPRADVDHAIEKAFQLWSNV [P3M] here?
Answer: 1.88

Question: For YTKDLPRADVDHAIEKAFQLWSNV [P3K], which protein stability index is on record?
Answer: 2.01

Question: For YTCDLPRADVDHAIEKAFQLWSNV [P3C], which protein stability index is on record?
Answer: 1.54

Question: Which protein stability index does the source give for YTWDLPRADVDHAIEKAFQLWSNV [P3W] here?
Answer: 2.87

Question: For YTHDLPRADVDHAIEKAFQLWSNV [P3H], which protein stability index is on record?
Answer: 1.79

Question: With YTNDLPRADVDHAIEKAFQLWSNV [P3N] as the variant, how does the protein stability index read?
Answer: 2.5

Question: With YLPDLPRADVDHAIEKAFQLWSNV [T2L] as the variant, how does the protein stability index read?
Answer: 1.83

Question: With YSPDLPRADVDHAIEKAFQLWSNV [T2S] as the variant, how does the protein stability index read?
Answer: 1.95

Question: With YQPDLPRADVDHAIEKAFQLWSNV [T2Q] as the variant, how does the protein stability index read?
Answer: 1.74

Question: Which protein stability index does the source give for YWPDLPRADVDHAIEKAFQLWSNV [T2W] here?
Answer: 2.16

Question: Which protein stability index does the source give for YVPDLPRADVDHAIEKAFQLWSNV [T2V] here?
Answer: 1.95

Question: Which protein stability index does the source give for YFPDLPRADVDHAIEKAFQLWSNV [T2F] here?
Answer: 2.17

Question: Which protein stability index does the source give for YAPDLPRADVDHAIEKAFQLWSNV [T2A] here?
Answer: 2.4

Question: Which protein stability index does the source give for YKPDLPRADVDHAIEKAFQLWSNV [T2K] here?
Answer: 2.56

Question: For YGPDLPRADVDHAIEKAFQLWSNV [T2G], which protein stability index is on record?
Answer: 2.4

Question: With YIPDLPRADVDHAIEKAFQLWSNV [T2I] as the variant, how does the protein stability index read?
Answer: 2.52

Question: Which protein stability index does the source give for YHPDLPRADVDHAIEKAFQLWSNV [T2H] here?
Answer: 2.11

Question: With YNPDLPRADVDHAIEKAFQLWSNV [T2N] as the variant, how does the protein stability index read?
Answer: 2.18

Question: Which protein stability index does the source give for YYPDLPRADVDHAIEKAFQLWSNV [T2Y] here?
Answer: 2.45

Question: Which protein stability index does the source give for YRPDLPRADVDHAIEKAFQLWSNV [T2R] here?
Answer: 2.31

Question: Which protein stability index does the source give for YEPDLPRADVDHAIEKAFQLWSNV [T2E] here?
Answer: 3.6

Question: With YDPDLPRADVDHAIEKAFQLWSNV [T2D] as the variant, how does the protein stability index read?
Answer: 3.08

Question: Which protein stability index does the source give for YPPDLPRADVDHAIEKAFQLWSNV [T2P] here?
Answer: 2.17

Question: Which protein stability index does the source give for YMPDLPRADVDHAIEKAFQLWSNV [T2M] here?
Answer: 2.35

Question: With YCPDLPRADVDHAIEKAFQLWSNV [T2C] as the variant, how does the protein stability index read?
Answer: 1.93

Question: Which protein stability index does the source give for NTPDLPRADVDHAIEKAFQLWSNV [Y1N] here?
Answer: 3.18

Question: For HTPDLPRADVDHAIEKAFQLWSNV [Y1H], which protein stability index is on record?
Answer: 3.43

Question: For TTPDLPRADVDHAIEKAFQLWSNV [Y1T], which protein stability index is on record?
Answer: 2.92

Question: With PTPDLPRADVDHAIEKAFQLWSNV [Y1P] as the variant, how does the protein stability index read?
Answer: 3.47

Question: With STPDLPRADVDHAIEKAFQLWSNV [Y1S] as the variant, how does the protein stability index read?
Answer: 3.52

Question: For VTPDLPRADVDHAIEKAFQLWSNV [Y1V], which protein stability index is on record?
Answer: 3.19

Question: Which protein stability index does the source give for FTPDLPRADVDHAIEKAFQLWSNV [Y1F] here?
Answer: 2.48

Question: With MTPDLPRADVDHAIEKAFQLWSNV [Y1M] as the variant, how does the protein stability index read?
Answer: 3.16

Question: Which protein stability index does the source give for ETPDLPRADVDHAIEKAFQLWSNV [Y1E] here?
Answer: 3.53

Question: With ATPDLPRADVDHAIEKAFQLWSNV [Y1A] as the variant, how does the protein stability index read?
Answer: 4.18

Question: Which protein stability index does the source give for RTPDLPRADVDHAIEKAFQLWSNV [Y1R] here?
Answer: 2.97

Question: For ITPDLPRADVDHAIEKAFQLWSNV [Y1I], which protein stability index is on record?
Answer: 2.64

Question: For CTPDLPRADVDHAIEKAFQLWSNV [Y1C], which protein stability index is on record?
Answer: 2.33

Question: For GTPDLPRADVDHAIEKAFQLWSNV [Y1G], which protein stability index is on record?
Answer: 2.97

Question: Which protein stability index does the source give for WTPDLPRADVDHAIEKAFQLWSNV [Y1W] here?
Answer: 2.32

Question: For DTPDLPRADVDHAIEKAFQLWSNV [Y1D], which protein stability index is on record?
Answer: 3.57

Question: Which protein stability index does the source give for LTPDLPRADVDHAIEKAFQLWSNV [Y1L] here?
Answer: 2.87

Question: With QTPDLPRADVDHAIEKAFQLWSNV [Y1Q] as the variant, how does the protein stability index read?
Answer: 3.08

Question: For KTPDLPRADVDHAIEKAFQLWSNV [Y1K], which protein stability index is on record?
Answer: 3.32

Question: For YTPDGPRADVDHAIEKAFQLWSNV [L5G], which protein stability index is on record?
Answer: 1.32

Question: With YTPDFPRADVDHAIEKAFQLWSNV [L5F] as the variant, how does the protein stability index read?
Answer: 2.64

Question: Which protein stability index does the source give for YTPDWPRADVDHAIEKAFQLWSNV [L5W] here?
Answer: 2.17

Question: For YTPDYPRADVDHAIEKAFQLWSNV [L5Y], which protein stability index is on record?
Answer: 1.44

Question: Which protein stability index does the source give for YTPDEPRADVDHAIEKAFQLWSNV [L5E] here?
Answer: 2.16

Question: For YTPDVPRADVDHAIEKAFQLWSNV [L5V], which protein stability index is on record?
Answer: 2.89

Question: Which protein stability index does the source give for YTPDCPRADVDHAIEKAFQLWSNV [L5C] here?
Answer: 1.84

Question: With YTPDRPRADVDHAIEKAFQLWSNV [L5R] as the variant, how does the protein stability index read?
Answer: 2.49
